The test system of one data set is ThfB and ThfM. Nature of the data set: In vitro reconstitution with ThfB and ThfM together. Type of data set: biochemical, Thermobifida fusca. To be noted: 10 μM ThfA, 1 μM ThfB, 1 μM ThfM, 0.4 mM SAM, ATP, no KCl, 37 °C; 5 h; LC-MS.
In another data set the test system is O-methyltransferase ThfM. Nature of the data set: In vitro aspartimide formation by ThfM alone. Type of data set: biochemical, Thermobifida fusca. The conditions noted are these: 10 μM substrate, 1 μM ThfM, 0.4 mM SAM, 100 mM sodium phosphate, 37 °C; LC-MS.

As for ThfA, the “conversion to triply dehydrated product” value with ThfB and ThfM is on record as ~ 75%. The “modification by ThfM alone” value with O-methyltransferase ThfM is listed as “no reaction”.

The values are drawn from doi:10.1101/2021.05.19.444834v1 (bioRxiv, 2021).
